Source: patent US20210238279A1 (Johns Hopkins, published 2021)

How the values were obtained:
[1] = target: T1, human ZnT8 over-expressed in HEK293 cells (human, UniProt Q8IWU4 1-369); assay: flow cytometry of fixed and permeabilized HEK293 cells, mean fluorescence against antibody concentration
T1 construct: whole, on cells; Cells were fixed and permeabilized for immunofluorescence and flow cytometry (intracellular staining); The same id is used for the detergent lysates of over-expressing cells in the HTRF assay; also called ZnT8(+) HEK293 cells; HEK293 cells stably expressing human ZnT8
T1 sequence (looked up): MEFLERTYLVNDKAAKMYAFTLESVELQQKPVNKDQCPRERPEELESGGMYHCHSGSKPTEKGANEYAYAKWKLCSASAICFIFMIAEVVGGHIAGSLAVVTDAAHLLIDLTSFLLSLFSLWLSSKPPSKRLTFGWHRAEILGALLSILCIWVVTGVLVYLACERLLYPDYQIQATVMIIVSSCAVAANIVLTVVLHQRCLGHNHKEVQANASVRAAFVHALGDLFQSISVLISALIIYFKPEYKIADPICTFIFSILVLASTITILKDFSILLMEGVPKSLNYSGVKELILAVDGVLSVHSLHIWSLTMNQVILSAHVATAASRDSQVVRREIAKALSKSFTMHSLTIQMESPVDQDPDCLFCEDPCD
From the text: FIG. 6A-6C. mAb binding affinity. (FIG. 6A) Representative confocal microscopy images of immunofluorescence staining of fixed and saponin-permeabilized HEK293 cells with mAb20 or mAb39 staining as indicated. ZnT8(+) or ZnT8(−) denotes HEK293 cells w/o ZnT8 over-expression. Red: mAb20 or mAb39 staining, blue: DAPI, scale bar: 5 um. (FIG. 6B) Histograms of flow cytometry counting events. Arrows indicate leftward shifts of the histogram as a result of mAb serial dilutions. (FIG. 6C) mAb binding to HEK293 cells w/o ZnT8 overexpression as indicated. Immunofluorescence intensities of mAb20 or mAb39 labeling in serial dilutions were obtained from (FIG. 6B). Solid lines are least-squares fits of the binding data to a one-component binding process.
Flow cytometry analysis. HEK293 cells w/o ZnT8 over-expression were fixed, permeabilized, and resuspended in PBS plus 5% BSA at a density of 1×10⁶/ml as described previously (43). Aliquots of 100 μl cell suspension were stained with mAb20 or mAb39 in 3-fold serial dilutions for 2 hours at RT, and then stained with Alexa fluor 647-conjugated donkey-anti-mouse secondary antibody in 1:1000 dilution with 5% BSA (Thermo Fisher Scientific, cat. #A31571). The labeled cells were analyzed immediately by flow cytometry. […]
Binding affinity. […] No mAb staining was detected in parental HEK293 cells without ZnT8 over-expression. […]

mouse ZnT8-His = target: T2, mouse ZnT8-His (mouse, UniProt Q8BGG0 1-367, limits assumed); assay: ELISA titration on ZnT8-His immobilized on Ni-NTA plate; reference is human ZnT8-His
T2 construct: Over-expressed in HEK293 cells, solubilized with DDM and immobilized on Ni-NTA plates, or SDS-denatured on immunoblots; not shown: C-terminal poly-histidine tag
T2 sequence (looked up): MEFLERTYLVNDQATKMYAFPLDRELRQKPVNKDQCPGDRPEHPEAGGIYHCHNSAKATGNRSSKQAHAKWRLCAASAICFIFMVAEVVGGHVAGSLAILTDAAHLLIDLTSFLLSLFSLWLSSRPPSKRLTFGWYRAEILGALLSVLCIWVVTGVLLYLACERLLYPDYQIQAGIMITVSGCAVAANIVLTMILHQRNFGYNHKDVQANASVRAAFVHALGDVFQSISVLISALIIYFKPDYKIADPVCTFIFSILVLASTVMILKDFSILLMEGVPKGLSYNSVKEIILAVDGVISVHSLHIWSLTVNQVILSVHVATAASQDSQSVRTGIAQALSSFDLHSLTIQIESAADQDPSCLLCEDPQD
From the text: FIG. 7A-7D. mAb binding specificities (FIG. 7A) mAb binding to ZnT8-His immobilized to Ni-NTA plate. Bound mAb20 (red) or mAb39 (magenta) was detected by an HRP-conjugated secondary antibody. Solid lines are least-squares fits of binding datapoints to a one-component binding process. Error bars are standard errors (n=8). (FIG. 7B) SDS-denatured mouse ZnT8-His (labeled as M) and human ZnT8-His (labeled as H) on immunoblots were detected by mAb20 or mAb39 as indicated. […] (FIG. 7C) Detection of endogenous human ZnT8 in EndoC-βH cells by mAb20 or […] immunoblotting. An equal amount of EndoC-βH lysate (5 μg total protein) was loaded to each lane. (FIG. 7D) Immunoblotting of HEK lysates with or with over-expression of a ZnT homolog as indicated. An approximately equal amount of total lysate protein (5 μg) was located to each lane, probed by either mAb20, mAb39, or anti-FALG antibody as indicated. FIG. 8. HTRF response to human ZnT8, mouse ZnT8 and human ZnT3.
Binding specificities. […] Of note, the epitope-masking effect of ZnT8 immobilization weakened the apparent binding affinities of both mAbs as compared to the affinities determined by flow-cytometry, and such a weakening effect was more pronounced for mAb39, probably due to a closer proximity of the mAb39 epitope to the C-terminal His-tag. Next, we compared the immunoreactivities of mAbs to denatured ZnT8.

B1: mAb20 (antibody, V domains shown)
VH: QIQLVQSGPELKKPGETVKISCKASGYIFTNYPMHWVKQAPGKGLKWMGWINTYSGVPTHADDFKGRFAFSLETSANSAFLQINNLKNEDTATYFCTRSRITPTGGYAMDYWGQGTSVTVSS
VL: DVVMTQTPLSLPVSLGDQASISCRSSQSLVHSNGNTYLHWYLQKPGQSPNLLISKVSNRFSGVPERFSGSGSGTDFTLKISRVEAEDLGVYFCSQNTHVPWTFGGGTKLEIKR
notes: Mouse hybridoma mAb purified on protein A/G; In some assays it was labelled with Alexa Fluor 488 or terbium cryptate; also called monoclonal antibody mAb20; anti-ZnT8 mAb20
[1]
  EC50 (read off the curve): ~0.1 µg/mL

B2: mAb39 (antibody, V domains shown)
VH: QVQLQQPGAELVKPGASVKLSCKASGYSFTTYWMHWVKQRPGQGLEWVGDINPRNGRTNYNEKSKSKATLTVDISSSTVYMQVSSLTSEDSAVYYCAIWSGAMDYWGPGTSVTVSS
VL: DVVMTQTPLSLPVSLGDQPSISCKSSQSLVHNNGNTYLHWYLQKPGQSPKLLIYKVSNRFSGVPDRFSGSGSGTDFTLKISRVEAEDLGVYFCSQTTHVPPTFGGGTKLEIKR
notes: Mouse hybridoma mAb purified on protein A/G; In some assays it was labelled with Alexa Fluor 555 or d2; also called monoclonal antibody mAb39; anti-ZnT8 mAb39
Mouse ZnT8-His
  fold difference in apparent binding affinity, mouse against human ZnT8: 2 fold
[1]
  EC50 (read off the curve): ~0.1 µg/mL
